Series [1] deals with HeLa Kyoto. The experiment in a line: solubility in G1/S (NP-40 vs SDS abundance) (log2 ratio); higher = more soluble. The note with it: cell cycle stage: G1/S.
For series [2], the system named is HeLa Kyoto. The experiment in a line: solubility change mitosis vs G1/S (difference of NP-40 vs SDS log2 ratios) (log2 ratio difference); higher = more soluble in mitosis.
The subject of series [3] is HeLa Kyoto. The experiment in a line: melting temperature (median over replicates), in situ; higher = more thermally stable.
For series [4], the system named is HeLa Kyoto. The experiment in a line: thermal stability score vs G1/S (z-score of summed log2 fold changes over temperatures); higher = more thermally stable than in G1/S.
[5] abbreviates: cell cycle stage: early G1 (4.5 h after nocodazole release).
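Throughout, for melting temperature (median over replicates), in situ: HeLa Kyoto cells synchronized by double thymidine or nocodazole block, proteins quantified by TMT10plex mass spectrometry, three independent biological replicates.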
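Throughout, for solubility change mitosis vs G1/S (difference of NP-40 vs SDS log2 ratios): synchronized HeLa Kyoto cells (double thymidine block for G1/S, nocodazole release for mitosis), protein amounts in NP-40 versus SDS lysates quantified by mass spectrometry, three biological replicates.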
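Throughout, for solubility in G1/S (NP-40 vs SDS abundance): HeLa Kyoto cells arrested at G1/S by double thymidine block, proteins quantified by TMT10plex mass spectrometry in mild NP-40 versus SDS extracts, three biological replicates.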
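Throughout, for thermal stability score vs G1/S (z-score of summed log2 fold changes over temperatures): synchronized HeLa Kyoto cells, proteins quantified by TMT10plex mass spectrometry, three biological replicates, mitosis taken 0.5 h after nocodazole release, G1/S directly after double thymidine block.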

Regarding “MSEAGGRGCGSPVPQRARWRLVAATAAFCLVSATSVWTAGAEPMSREEKQKLGNQVLEMFDHAYGNYMEHAYPADELMPLTCRGRVRGQEPSRGDVDDALGKFSLTLIDSLDTLVVLNKTKEFEDAVRKVLRDVNLDNDVVVSVFETNIRVLGGLLGGHSLAIMLKEKGEYMQWYNDELLQMAKQLGYKLLPAFNTTSGLPYPRINLKFGIRKPEARTGTETDTCTACAGTLILEFAALSRFTGATIFEEYARKALDFLWEKRQRSSNLVGVTINIHTGDWVRKDSGVGAGIDSYYEYLLKAYVLLGDDSFLERFNTHYDAIMRYISQPPLLLDVHIHKPMLNARTWMDALLAFFPGLQVLKGDIRPAIETHEMLYQVIKKHNFLPEAFTTDFRVHWAQHPLRPEFAESTYFLYKATGDPYYLEVGKTLIENLNKYARVPCGFAAMKDVRTGSHEDRMDSFFLAEMFKYLYLLFADKEDIIFDIEDYIFTTEAHLLPLWLSTTNQSISKKNTTSEYTELDDSNFDWTCPNTQILFPNDPLYAQSIREPLKNVVDKSCPRGIIRVEESFRSGAKPPLRARDFMATNPEHLEILKKMGVSLIHLKDGRVQLVQHAIQAASSIDAEDGLRFMQEMIELSSQQQKEQQLPPRAVQIVSHPFFGRVVLTAGPAQFGLDLSKHKETRGFVASSKPSNGCSELTNPEAVMGKIALIQRGQCMFAEKARNIQNAGAIGGIVIDDNEGSSSDTAPLFQMAGDGKDTDDIKIPMLFLFSKEGSIILDAIREYEEVEVLLSDKAKDRDPEMENEEQPSSENDSQNQSGEQISSSSQEVDLVDQESSEENSLNSHPESLSLADMDNAASISPSEQTSNPTENHETTNLNGECTDLDNQLQEQSETEEDSNPNVSWGKKVQPIDSILADWNEDIEAFEMMEKDEL [EDEM3]”, the “solubility in G1/S (log2)” value in the series with HeLa Kyoto [1] is 0.311. The “solubility change mitosis (log2)” value in the series on HeLa Kyoto [2] is -0.156. Moreover, the figures for the melting temperature in the series with HeLa Kyoto [3] (cell cycle stage: G1/S) and with HeLa Kyoto [3] (cell cycle stage: mitosis) were 53.5 °C and 53.7 °C, respectively. For the same substance, the results for the thermal stability score with HeLa Kyoto [4] (setting [5]) and with HeLa Kyoto [4] (cell cycle stage: mitosis) were 0.67 and 0.929, respectively.
“MSESSSKSSQPLASKQEKDGTEKRGRGRPRKQPPVSPGTALVGSQKEPSEVPTPKRPRGRPKGSKNKGAAKTRKTTTTPGRKPRGRPKKLEKEEEEGISQESSEEEQ [HMGA1]”: in the series on HeLa Kyoto [1], the “solubility in G1/S (log2)” value was 0.583. The “solubility change mitosis (log2)” value in the series with HeLa Kyoto [2] amounted to 1.62. The melting temperature in the series with HeLa Kyoto [3] (cell cycle stage: mitosis) is 57.6 °C. In addition, the thermal stability score is -6.52 in the series with HeLa Kyoto [4] (setting [5]) and -8.11 in the series on HeLa Kyoto [4] (cell cycle stage: mitosis).
With “MAAVSLRLGDLVWGKLGRYPPWPGKIVNPPKDLKKPRGKKCFFVKFFGTEDHAWIKVEQLKPYHAHKEEMIKINKGKRFQQAVDAVEEFLRRAKGKDQTSSHNSSDDKNRRNSSEERSRPNSGDEKRKLSLSEGKVKKNMGEGKKRVSSGSSERGSKSPLKRAQEQSPRKRGRPPKDEKDLTIPESSTVKGMMAGPMAAFKWQPTASEPVKDADPHFHHFLLSQTEKPAVCYQAITKKLKICEEETGSTSIQAADSTAVNGSITPTDKKIGFLGLGLMGSGIVSNLLKMGHTVTVWNRTAEKCDLFIQEGARLGRTPAEVVSTCDITFACVSDPKAAKDLVLGPSGVLQGIRPGKCYVDMSTVDADTVTELAQVIVSRGGRFLEAPVSGNQQLSNDGMLVILAAGDRGLYEDCSSCFQAMGKTSFFLGEVGNAAKMMLIVNMVQGSFMATIAEGLTLAQVTGQSQQTLLDILNQGQLASIFLDQKCQNILQGNFKPDFYLKYIQKDLRLAIALGDAVNHPTPMAAAANEVYKRAKALDQSDNDMSAVYRAYIH [GLYR1]”, in the series on HeLa Kyoto [1], the “solubility in G1/S (log2)” value was -1.74. For the same substance, the “solubility change mitosis (log2)” value in the series on HeLa Kyoto [2] was determined as 1.01. The figures for the melting temperature in the series on HeLa Kyoto [3] (cell cycle stage: G1/S) and in the series on HeLa Kyoto [3] (cell cycle stage: mitosis) were 53.3 °C and 52.4 °C, respectively. Also, the thermal stability score is 1.22 in the series on HeLa Kyoto [4] (setting [5]) and -1.43 in the series on HeLa Kyoto [4] (cell cycle stage: mitosis).
For “MAAGFGRCCRVLRSISRFHWRSQHTKANRQREPGLGFSFEFTEQQKEFQATARKFAREEIIPVAAEYDKTGEYPVPLIRRAWELGLMNTHIPENCGGLGLGTFDACLISEELAYGCTGVQTAIEGNSLGQMPIIIAGNDQQKKKYLGRMTEEPLMCAYCVTEPGAGSDVAGIKTKAEKKGDEYIINGQKMWITNGGKANWYFLLARSDPDPKAPANKAFTGFIVEADTPGIQIGRKELNMGQRCSDTRGIVFEDVKVPKENVLIGDGAGFKVAMGAFDKTRPVVAAGAVGLAQRALDEATKYALERKTFGKLLVEHQAISFMLAEMAMKVELARMSYQRAAWEVDSGRRNTYYASIAKAFAGDIANQLATDAVQILGGNGFNTEYPVEKLMRDAKIYQIYEGTSQIQRLIVAREHIDKYKN [ACADM]”, in the series with HeLa Kyoto [1], the “solubility in G1/S (log2)” value stood at 0.248. In the series with HeLa Kyoto [2], the “solubility change mitosis (log2)” value was -0.0323. Further, the melting temperature with HeLa Kyoto [3] (cell cycle stage: G1/S) and with HeLa Kyoto [3] (cell cycle stage: mitosis) was 54.7 °C throughout. The thermal stability score is -1.04 in the series with HeLa Kyoto [4] (setting [5]) and -2.26 with HeLa Kyoto [4] (cell cycle stage: mitosis).
RAP1GAP2: the “solubility in G1/S (log2)” value with HeLa Kyoto [1] was found to be 0.164. Also, the “solubility change mitosis (log2)” value with HeLa Kyoto [2] was 0.327. In addition, the melting temperature with HeLa Kyoto [3] (cell cycle stage: G1/S) and with HeLa Kyoto [3] (cell cycle stage: mitosis) was 50.3 °C throughout. Moreover, the thermal stability score was determined as 0.21 in the series on HeLa Kyoto [4] (setting [5]) and 0.699 in the series on HeLa Kyoto [4] (cell cycle stage: mitosis).

For the origin of these results see the supplement of paper PMC5998384.
